We go through one substance from PMC13486763.

The assay has as its target Porcine RNA polymerase II (porcine) (UniProt I3LGP4). Briefly: mass photometry; Pol II or Pol II-Gdown1 complex with GPN1-GPN3 and/or RPAP2 in a 1:2:2 molar ratio, 30 minutes at 4 °C; measured at 20 nM; 20 mM HEPES-NaOH pH 7.9, 100 mM NaCl, 2 mM MgCl2, 10 µM ZnCl2, 1 mM DTT.

For “Porcine RNA polymerase II (from UniProt I3LGP4 127-1300; P60899 1-125; A0A4X1VYD0 1-67; A0A8D0JYF1 1-58) (complex)”, the stoichiometry N (usually the number of molecules, sites or subunits per partner or assembly) was found to be 2.
